According to patent US20170015742A1 (published 2017):

What was measured:
[1] = biological target: VEGF-A (UniProt P15692-4 27-191, limits assumed); assay: SPR (Biacore), DVD-Ig captured by anti-human Fc, antigen injected
Experimental: (§1) For example, approximately 9000 RU of goat anti-human Fc specific polyclonal antibody (Thermo Fisher Scientific Inc., Rockford, Ill.) diluted in 10 mM sodium acetate (pH 4.5) is directly immobilized across a CM5 research grade biosensor chip using a standard amine coupling kit according to manufacturer's instructions and procedures at 25 μg/ml. Unreacted moieties on the biosensor surface were blocked with ethanolamine. For kinetic analysis, rate equations derived from the 1:1 Langmuir binding model were fitted simultaneously to multiple antigen injections (using global fit analysis) with the use of Scrubber 2 (BioLogic Software), Biacore Biaevaluation 4.0.1 software or Biacore T100 Evaluation software. Purified antibodies or DVD-Ig molecules were diluted in running buffer for capture across goat anti-human Fc reaction surfaces. Antibodies or DVD-Ig molecules to be captured as a ligand (1 μg/ml) were injected over reaction matrices at a flow rate of 10 μl/minute. During the assay, all measurements were referenced against the capture surface alone (i.e., with no captured antibody or DVD-Ig molecule). […] The equilibrium dissociation constant KD (M) of the reaction between antibodies and the target antigen was then calculated from the kinetic rate constants by the following formula: KD=Koff/Kₒₙ. Binding was recorded as a function of time and kinetic rate constants were calculated.

[2] = biological target: PDGF-BB (UniProt P01127 82-190); assay: as above
Experimental: as §1

[3] = biological target: T1, Human VEGF-A 165 (human, UniProt P15692 207-395); assay: SPR (Biacore), method of Example 1.1
T1 construct: also called hVEGF165

[4] = biological target: T2, Human PDGF-BB (human, UniProt P01127 82-190); assay: SPR (Biacore), method of Example 1.1
T2 construct: also called hPDGF-BB
T2 sequence (P01127 82-190 limits assumed): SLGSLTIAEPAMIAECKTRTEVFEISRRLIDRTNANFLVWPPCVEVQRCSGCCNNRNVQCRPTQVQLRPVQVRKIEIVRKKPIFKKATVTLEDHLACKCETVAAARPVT

VEGF-A, sequence (P15692 other isoform, or with tags, fused parts or gaps limits assumed): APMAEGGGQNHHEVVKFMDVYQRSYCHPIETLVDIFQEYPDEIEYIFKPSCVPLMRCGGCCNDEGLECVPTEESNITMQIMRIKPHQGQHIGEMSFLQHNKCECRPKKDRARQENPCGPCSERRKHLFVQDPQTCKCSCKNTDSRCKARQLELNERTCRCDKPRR
PDGF-BB, sequence (P01127 82-190): as the sequence (P01127 82-190 limits assumed) above
T1 sequence (P15692 other isoform, or with tags, fused parts or gaps limits assumed): as the sequence (P15692 other isoform, or with tags, fused parts or gaps limits assumed) above

Row | Binder | Kd [1] [pM] | kon [1] [M⁻¹ s⁻¹] | Kd [2] [pM] | kon [2] [M⁻¹ s⁻¹] | Kd [3] [pM] | kon [3] [M⁻¹ s⁻¹] | Kd [4] [pM] | kon [4] [M⁻¹ s⁻¹]
1 | 9E10.1_GS_CL-33675 (PR-1610561) (bispecific antibody, human IgG1, kappa, L234A L235A, DVD-Ig: outer hBEW-9E10.1 (VEGF), inner CL-33675 (PDGF), linkers GS-H10 / GS-L10(dR); Human IgG1 L234A, L235A, H435A with kappa light chain; also called 9E10.1-GS-33675; hu VEGF 9E10.1-GS-hu PDGF 33675 [hu IgG1/k]; LALA H435A) heavy: EIQLVQSGSELKKPGASVKVSCKASGYTFTNYGMYWVKQAPGQGLEYMGWIDTETGRPTYADDFKGRFVFSLDTSVSTAYLQISSLKAEDTAVYFCARWSGDTTGIRGPWFAYWGQGTLVTVSSGGGGSGGGGSEVTLRESGPALVKPTQTLTLTCTFSGFSLSTYGMGVGWIRQPPGKALEWLANIWWDDDKYYNPSLKNRLTISKDTSKNQVVLTMTNMDPVDTATYYCARIESSGPKYSFDYWGQGTMVTVSSASTKGPSVFPLAPSSKSTSGGTAALGCLVKDYFPEPVTVSWNSGALTSGVHTFPAVLQSSGLYSLSSVVTVPSSSLGTQTYICNVNHKPSNTKVDKKVEPKSCDKTHTCPPCPAPEAAGGPSVFLFPPKPKDTLMISRTPEVTCVVVDVSHEDPEVKFNWYVDGVEVHNAKTKPREEQYNSTYRVVSVLTVLHQDWLNGKEYKCKVSNKALPAPIEKTISKAKGQPREPQVYTLPPSREEMTKNQVSLTCLVKGFYPSDIAVEWESNGQPENNYKTTPPVLDSDGSFFLYSKLTVDKSRWQQGNVFSCSVMHEALHNAYTQKSLSLSPGK light: DIRMTQSPSSLSASVGDRVTIECLASEDIYSDLAWYQQKPGKSPKLLIYNANGLQNGVPSRFSGSGSGTDYSLTISSLQPEDVATYFCQQYNYFPGTFGQGTKLEIKGGSGGGGSGGEIVLTQSPGTLSLSPGERATLSCRASSGSIWYSFVSWYQQKPGQAPRLLIYADDQRASGIPDRFSGSGSGTDFTLTISRLEPEDFAVYYCQSYGINIDVVFGGGTKVEIKRTVAAPSVFIFPPSDEQLKSGTASVVCLLNNFYPREAKVQWKVDNALQSGNSQESVTEQDSKDSTYSLSSTLTLSKADYEKHKVYACEVTHQGLSSPVTKSFNRGEC | 1.8 | 9.7e+06 | 0.45 | 2e+07 |  |  |  | 
2 | 9E10.1_GS_9E8.4 (PR-1612491) (bispecific antibody, human IgG1, kappa, L234A L235A, DVD-Ig: outer hBEW-9E10.1 (VEGF), inner hBDI-9E8.4 (PDGF), linkers GS-H10 / GS-L10(dR); Human IgG1 L234A, L235A, H435A with kappa light chain) heavy: EIQLVQSGSELKKPGASVKVSCKASGYTFTNYGMYWVKQAPGQGLEYMGWIDTETGRPTYADDFKGRFVFSLDTSVSTAYLQISSLKAEDTAVYFCARWSGDTTGIRGPWFAYWGQGTLVTVSSGGGGSGGGGSEVTLRESGPALVKPTQTLTLTCTFSGFSLSTYGMGVGWIRQPPGKALEWLANIWWDDDKYYNPSLKNRLTISKDTSKNQVVLTMTNMDPVDTATYYCARIESIGTTYSFDYWGQGTMVTVSSASTKGPSVFPLAPSSKSTSGGTAALGCLVKDYFPEPVTVSWNSGALTSGVHTFPAVLQSSGLYSLSSVVTVPSSSLGTQTYICNVNHKPSNTKVDKKVEPKSCDKTHTCPPCPAPEAAGGPSVFLFPPKPKDTLMISRTPEVTCVVVDVSHEDPEVKFNWYVDGVEVHNAKTKPREEQYNSTYRVVSVLTVLHQDWLNGKEYKCKVSNKALPAPIEKTISKAKGQPREPQVYTLPPSREEMTKNQVSLTCLVKGFYPSDIAVEWESNGQPENNYKTTPPVLDSDGSFFLYSKLTVDKSRWQQGNVFSCSVMHEALHNAYTQKSLSLSPGK light: DIRMTQSPSSLSASVGDRVTIECLASEDIYSDLAWYQQKPGKSPKLLIYNANGLQNGVPSRFSGSGSGTDYSLTISSLQPEDVATYFCQQYNYFPGTFGQGTKLEIKGGSGGGGSGGEFVLTQSPGTLSLSPGERATLSCERSSGDIGDSYVSWYQQKPGQAPRLVIYADDQRPSGIPDRFSGSGSGTDFTLTISRLEPEDFAVYYCQSYDINIDIVFGGGTKVEIKRTVAAPSVFIFPPSDEQLKSGTASVVCLLNNFYPREAKVQWKVDNALQSGNSQESVTEQDSKDSTYSLSSTLTLSKADYEKHKVYACEVTHQGLSSPVTKSFNRGEC | 2.2 | 1.1e+07 | 25 | 6.8e+06 |  |  |  | 
3 | 9E10.1_GS_3E2.1 (PR-1610562) (bispecific antibody, human IgG1, kappa, L234A L235A, DVD-Ig: outer hBEW-9E10.1 (VEGF), inner hBFU-3E2.1 (PDGF), linkers GS-H10 / GS-L10(dR); Human IgG1 L234A, L235A, H435A with kappa light chain) heavy: EIQLVQSGSELKKPGASVKVSCKASGYTFTNYGMYWVKQAPGQGLEYMGWIDTETGRPTYADDFKGRFVFSLDTSVSTAYLQISSLKAEDTAVYFCARWSGDTTGIRGPWFAYWGQGTLVTVSSGGGGSGGGGSEVQLVQSGAEVKKPGSSVKVSCKASGYTFTESYMYWVKQAPGQGLELIGRIDPEDGSTDYVEKFKNKATLTADKSTSTAYMELSSLRSEDTAVYFCARFGARSYFYPMDAWGQGTTVTVSSASTKGPSVFPLAPSSKSTSGGTAALGCLVKDYFPEPVTVSWNSGALTSGVHTFPAVLQSSGLYSLSSVVTVPSSSLGTQTYICNVNHKPSNTKVDKKVEPKSCDKTHTCPPCPAPEAAGGPSVFLFPPKPKDTLMISRTPEVTCVVVDVSHEDPEVKFNWYVDGVEVHNAKTKPREEQYNSTYRVVSVLTVLHQDWLNGKEYKCKVSNKALPAPIEKTISKAKGQPREPQVYTLPPSREEMTKNQVSLTCLVKGFYPSDIAVEWESNGQPENNYKTTPPVLDSDGSFFLYSKLTVDKSRWQQGNVFSCSVMHEALHNAYTQKSLSLSPGK light: DIRMTQSPSSLSASVGDRVTIECLASEDIYSDLAWYQQKPGKSPKLLIYNANGLQNGVPSRFSGSGSGTDYSLTISSLQPEDVATYFCQQYNYFPGTFGQGTKLEIKGGSGGGGSGGETVLTQSPATLSLSPGERATLSCRASESVSTLMHWYQQKPGQQPRLLIYGASNLESGVPARFSGSGSGTDFTLTISSLEPEDFAVYFCQQSWNDPWTFGGGTKVEIKRTVAAPSVFIFPPSDEQLKSGTASVVCLLNNFYPREAKVQWKVDNALQSGNSQESVTEQDSKDSTYSLSSTLTLSKADYEKHKVYACEVTHQGLSSPVTKSFNRGEC | 2.4 | 9.3e+06 | 21 | 4.1e+07 |  |  |  | 
4 | 9E10.6_GS_CL-33675 (PR-1612492) (bispecific antibody, human IgG1, kappa, L234A L235A, DVD-Ig: outer hBEW-9E10.6 (VEGF), inner CL-33675 (PDGF), linkers GS-H10 / GS-L10(dR); Human IgG1 L234A, L235A, H435A with kappa light chain) heavy: EVQLVQSGAEVKKPGSSVKVSCKASGYTFTNYGMYWVRQAPGQGLEWMGWIDTETGRPTYADDFKGRFTFTADKSTSTAYMELSSLRSEDTAVYYCARWSGDTTGIRGPWFAYWGQGTLVTVSSGGGGSGGGGSEVTLRESGPALVKPTQTLTLTCTFSGFSLSTYGMGVGWIRQPPGKALEWLANIWWDDDKYYNPSLKNRLTISKDTSKNQVVLTMTNMDPVDTATYYCARIESSGPKYSFDYWGQGTMVTVSSASTKGPSVFPLAPSSKSTSGGTAALGCLVKDYFPEPVTVSWNSGALTSGVHTFPAVLQSSGLYSLSSVVTVPSSSLGTQTYICNVNHKPSNTKVDKKVEPKSCDKTHTCPPCPAPEAAGGPSVFLFPPKPKDTLMISRTPEVTCVVVDVSHEDPEVKFNWYVDGVEVHNAKTKPREEQYNSTYRVVSVLTVLHQDWLNGKEYKCKVSNKALPAPIEKTISKAKGQPREPQVYTLPPSREEMTKNQVSLTCLVKGFYPSDIAVEWESNGQPENNYKTTPPVLDSDGSFFLYSKLTVDKSRWQQGNVFSCSVMHEALHNAYTQKSLSLSPGK light: DIRMTQSPSSLSASVGDRVTITCLASEDIYSDLAWYQQKPGKSPKLLIYNANGLQNGVPSRFSGSGSGTDYTLTISSLQPEDVATYFCQQYNYFPGTFGQGTKLEIKGGSGGGGSGGEIVLTQSPGTLSLSPGERATLSCRASSGSIWYSFVSWYQQKPGQAPRLLIYADDQRASGIPDRFSGSGSGTDFTLTISRLEPEDFAVYYCQSYGINIDVVFGGGTKVEIKRTVAAPSVFIFPPSDEQLKSGTASVVCLLNNFYPREAKVQWKVDNALQSGNSQESVTEQDSKDSTYSLSSTLTLSKADYEKHKVYACEVTHQGLSSPVTKSFNRGEC | 2 | 1.1e+07 | 1.2 | 2.4e+07 |  |  |  | 
5 | CODV020 (bispecific antibody, human IgG1, kappa, L234A L235A, Anti-human VEGF-A/anti-human PDGF-BB cross-over DVD-Ig (CO-DVD-Ig); also called PR-1571836) heavy: EFVLTQSPGTLSLSPGERATLSCERSSGDIGDSYVSWYQQKPGQAPRLVIYADDQRPSGIPDRFSGSGSGTDFTLTISRLEPEDFAVYYCQSYDINIDIVFGGGTKVEIKGGGSGGGGEVQLVQSGSELKKPGASVKVSCKASGYTFTNYGMYWVRQAPGQGLEWMGWINTETGKPTYADDFKGRFVFSLDTSVSTAYLQISSLKAEDTAVYYCARTNYYYRSYIFYFDYWGQGTMVTVSSLGGCGGGSASTKGPSVFPLAPSSKSTSGGTAALGCLVKDYFPEPVTVSWNSGALTSGVHTFPAVLQSSGLYSLSSVVTVPSSSLGTQTYICNVNHKPSNTKVDKKVEPKSCDKTHTCPPCPAPEAAGGPSVFLFPPKPKDTLMISRTPEVTCVVVDVSHEDPEVKFNWYVDGVEVHNAKTKPREEQYNSTYRVVSVLTVLHQDWLNGKEYKCKVSNKALPAPIEKTISKAKGQPREPQVYTLPPSREEMTKNQVSLTCLVKGFYPSDIAVEWESNGQPENNYKTTPPVLDSDGSFFLYSKLTVDKSRWQQGNVFSCSVMHEALHNAYTQKSLSLSPGK light: DTVLTQSPATLSLSPGERATLSCRASESVSTHMHWYQQKPGQAPRLLIYGASNLESGVPARFSGSGSGTDFTLTISSLEPEDFAVYFCQQSWNDPFTFGQGTKLEIKGGGSGGGGEVTLRESGPALVKPTQTLTLTCTFSGFSLSTYGMGVGWIRQPPGKALEWLANIWWDDDKYYNPSLKNRLTISKDTSKNQVVLTMTNMDPVDTATYYCARIESIGTTYSFDYWGQGTMVTVSSLGGCGGGSRTVAAPSVFIFPPSDEQLKSGTASVVCLLNNFYPREAKVQWKVDNALQSGNSQESVTEQDSKDSTYSLSSTLTLSKADYEKHKVYACEVTHQGLSSPVTKSFNRGEC |  |  |  |  | 33 | 3.1e+06 | 3.5 | 4.6e+07
